Laboratory results published in PMC7010297, “How the initiating ribosome copes with ppGpp to translate mRNAs” (PLoS Biology, 2020).
Values joined by “and” are separate entries in the source; they are usually repeats but may differ in a detail not shown here. Equal values may be shown once. Read-outs that look alike come from different tables or passages of the source.

Experiments:
IF2-bound 30S IC = target: T1, IF2-bound 30S IC (Escherichia coli, UniProt P0A705); test: 30S IC formation by MST, guanosine nucleotide titration; format: binding; settings: for MST Average / MST Replicates: Fig 6E; for Kd: Fig 3F, GTP titration;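 on MST Average: lower thermophoresis signal means Bpy-tRNAi dissociation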
T1 construct: 6xHis (N); made in house
Text: To monitor the interaction of initiator tRNA and 30S ribosomal subunits, we used Microscale Thermophoresis (MST) with a fluorescently labelled initiator tRNA (Bpy-tRNAi) (Fig 1B). MST allows to measure fluorescence in a constrained space. Changes on the readout derive from molecular drifts resulting from small thermal equilibrium perturbations. Upon equilibrium perturbations, the patterns of Bpy-tRNAi migration away from the observation space are related to bound and unbound states (Fig 1B). […] On the contrary, a decrease in thermophoresis indicated the dissociation of Bpy-tRNAi. The relation between fluorescence measured at both equilibriums (Ff to Fi, after and prior to the perturbation, respectively) as a function of ligand concentration allowed to determine dissociation constants of the interaction (Fig 1C).
Continuous lines indicate nonlinear regression fittings with a quadratic equation. Three measurements were performed; mean and standard deviation are plotted (S1 Data). (B) as (A) to measure the concentration dependence for each tested guanosine nucleotide at constant IF2 (1 μM). […] Continuous lines show best fits using exponential functions. (D) Formation of 70S IC as measured by Bpy-tRNAi accommodation in the P site of the ribosome; 0.1 μM 30S ICs were formed with Bpy-tRNAi and rapidly mixed with 0.3 μM 50S subunits on a stopped-flow apparatus as described in [14]. Colors are as in (C). Continuous lines show best fits using an exponential function for a single reaction step. Each stopped-flow trace results from the mean of 5 to 7 replicates.
(§1) MST was calculated from the respective fluorescence time dependencies (S3 Fig). […] Symbols as in (B). […] Continuous lines indicate nonlinear regression fittings with quadratic (B and E) or same-site competition (G) functions. Three measurements were performed; mean and standard deviations are plotted (S1 Data).

30S-bound IF2 (30S IC) = target: T2, 30S-bound IF2 (30S IC) (Escherichia coli, UniProt P0A705); test: ppGpp (or GDP) to GTP competitive assay for 30S IC formation by MST; format: binding; settings: S4G Fig
T2 construct: 6xHis (N); made in house
Experimental: as §1
[…] Symbols are as indicated, 3 measurements were performed, and mean and standard deviation are plotted (S1 Data). Continuous lines show nonlinear regression fittings with a same-site inhibition model. […] (PDF) Click here for additional data file.

B1: mTufA: TufA mRNA with full-length 5′ UTR, in vitro transcribed, codes for EF-Tu (nucleic acid)
chain: GGUUCUAUCGCCUUUAAAGAAGGCUUUAAGAAAGCGAAACCAGUUCUGCUUGAGCCGAUCAUGAAGGUUGAAGUAGAAACUCCGGAAGAGAACACCGGUGACGUUAUCGGUGACUUGAGCCGUCGUCGUGGUAUGCUCAAAGGUCAGGAAUCUGAAGUUACUGGCGUUAAGAUCCACGCUGAAGUACCGCUGUCUGAAAUGUUCGGAUACGCAACUCAGCUGCGUUCUCUGACCAAAGGUCGUGCAUCAUACACUAUGGAAUUCCUGAAGUAUGAUGAAGCGCCGAGUAACGUUGCUCAGGCCGUAAUUGAAGCCCGUGGUAAAUAAGCCUAAGGGUUAAUACCAAAGUCCCGUGCUCUCUCCUGAAGGGGAGAGCACUAUAGUAAGGAAUAUAGCCGUGUCUAAAGAAAAAUUUGAACG
MST Average (IF2-bound 30S IC; GTP 0.49 μM): 1014.52 a.u. | MST Replicates (IF2-bound 30S IC; GTP 0.49 μM): 1011.10 a.u. and 1014.70 a.u. and 1017.78 a.u. | MST Average (IF2-bound 30S IC; GTP 1.95 μM): 1035.39 a.u. | MST Replicates (IF2-bound 30S IC; GTP 1.95 μM): 1032.39 a.u. and 1034.94 a.u. and 1038.85 a.u. | MST Average (IF2-bound 30S IC; GTP 3.91 μM): 1049.68 a.u. | MST Replicates (IF2-bound 30S IC; GTP 3.91 μM): 1044.99 a.u. and 1049.25 a.u. and 1054.80 a.u. | MST Average (IF2-bound 30S IC; GTP 7.81 μM): 1070.36 a.u. | MST Replicates (IF2-bound 30S IC; GTP 7.81 μM): 1070.17 a.u. and 1070.71 a.u. and 1070.18 a.u. | Kd (IF2-bound 30S IC; read-out: Kd (μM) of GTP for the 30S IC programmed with the labelled mRNA, Average): 0.28 µM | Kd (IF2-bound 30S IC; read-out: Kd (μM) of GTP for the 30S IC programmed with the labelled mRNA, single replicate): 0.3 µM and 0.27 µM | MST Avg (30S-bound IF2 (30S IC); Log [GDP] 0.29): 1108.89 a.u. | MST Replicates (30S-bound IF2 (30S IC); Log [GDP] 0.29): 1106.67 a.u. and 1109.49 a.u. and 1110.53 a.u. | MST Avg (30S-bound IF2 (30S IC); Log [GDP] 0.59): 1108.25 a.u. | MST Replicates (30S-bound IF2 (30S IC); Log [GDP] 0.59): 1104.73 a.u. and 1108.81 a.u. and 1111.20 a.u. | MST Avg (30S-bound IF2 (30S IC); Log [GDP] 0.89): 1106.94 a.u. | MST Replicates (30S-bound IF2 (30S IC); Log [GDP] 0.89): 1105.25 a.u. and 1107.28 a.u. and 1108.30 a.u. | MST Avg (30S-bound IF2 (30S IC); Log [GDP] 1.19): 1104.11 a.u. | MST Replicates (30S-bound IF2 (30S IC); Log [GDP] 1.19): 1101.85 a.u. and 1104.36 a.u. and 1106.13 a.u. | MST Avg (30S-bound IF2 (30S IC); Log [GDP] 1.49): 1094.23 a.u. | MST Replicates (30S-bound IF2 (30S IC); Log [GDP] 1.49): 1091.94 a.u. and 1094.86 a.u. and 1095.88 a.u. | MST Avg (30S-bound IF2 (30S IC); Log [GDP] 1.80): 1077.93 a.u. | MST Replicates (30S-bound IF2 (30S IC); Log [GDP] 1.80): 1075.66 a.u. and 1079.00 a.u. and 1079.14 a.u. | MST Avg (30S-bound IF2 (30S IC); Log [GDP] 2.10): 1056.10 a.u. | MST Replicates (30S-bound IF2 (30S IC); Log [GDP] 2.10): 1053.33 a.u. and 1057.00 a.u. and 1057.97 a.u. | MST Avg (30S-bound IF2 (30S IC); Log [GDP] 2.40): 1017.56 a.u. | MST Replicates (30S-bound IF2 (30S IC); Log [GDP] 2.40): 1014.74 a.u. and 1018.61 a.u. and 1019.33 a.u. | MST Avg (30S-bound IF2 (30S IC); Log [GDP] 2.70): 975.78 a.u. | MST Replicates (30S-bound IF2 (30S IC); Log [GDP] 2.70): 973.53 a.u. and 976.74 a.u. and 977.08 a.u.
